Experimental data published in patent publication US20050058645A1 (ZENYTH OPERATIONS, published 2005).

B1: mouse IL-13 (ligand, UniProt P20109 21-131, looked up)
chain: GPVPRSVSLPLTLKELIEELSNITQDQTPLCNGSMVWSVDLAAGGFCVALDSLTNISNCNAIYRTQRILHGLCNRKAPTTVSSLPDTKIEVAHFITKLLSYTKQLFRHGPF
B2: soluble hIL-13Rα1 (ECD) (receptor)
chain: GGGGAAPTETQPPVTNLSVSVENLCTVIWTWNPPEGASSNCSLWYFSHFGDKQDKKIAPETRRSIEVPLNERICLQVGSQCSTNESEKPSILVEKCISPPEGDPESAVTELQCIWHNLSYMKCSWLPGRNTSPDTNYTLYYWHRSLEKIHQCENIFREGQYFGCSFDLTKVKDSSFEQHSVQIMVKDNAGKIKPSFNIVPLTSRVKPDPPHIKNLSFHNDDLYVQWENPQNFISRCLFYEVEVNNSQTETHNVFYVQEAKCENPEFERNVENTSCFMVPGVLPDTLNTVRIRVKTNKLCYEDDKLWSNWSQEMSIGKKRNST
notes: also called immobilized hIL-13Rα1 (ECD)
B3: chimeric human IL-13Rα1-Fc (Fc fusion)
chain: GGGGAAPTETQPPVTNLSVSVENLCTVIWTWNPPEGASSNCSLWYFSHFGDKQDKKIAPETRRSIEVPLNERICLQVGSQCSTNESEKPSILVEKCISPPEGDPESAVTELQCIWHNLSYMKCSWLPGRNTSPDTNYTLYYWHRSLEKIHQCENIFREGQYFGCSFDLTKVKDSSFEQHSVQIMVKDNAGKIKPSFNIVPLTSRVKPDPPHIKNLSFHNDDLYVQWENPQNFISRCLFYEVEVNNSQTETHNVFYVQEAKCENPEFERNVENTSCFMVPGVLPDTLNTVRIRVKTNKLCYEDDKLWSNWSQEMSIGKKRNST
notes: Bought (R & D Systems); Extracellular domain of IL-13Rα1 fused to Fc of human IgG; Expressed as preformed disulphide-bonded dimer; also called hIL-13Rα1-Fc; chimeric human receptor; not shown: Fc portion of human IgG
B4: CDR-grafted 1D9 Fab (Fab, V domains shown)
VH: EVQLVESGGGLVQPGGSLRLSCAASGFTFSGYGMSWVRQAPGKGLEWVATISGLGGYTYYPDSVKGRFTISRDNSKNTLYLQMNSLRAEDTAVYYCARRFYGDYVGAMDYWGQGTLVTVSS
VL: DIQMTQSPSSLSASVGDRVTITCRSSKSLLHSNGITYLYWYQQKPGKAPKLLIYQMSNLASGVPSRFSGSGSGTDFTLTISSLQPEDFATYYCAQNLELPFTFGQGTKVEIKR
B5: chimeric mouse IL-13Rα1-Fc (Fc fusion, UniProt O09030 26-340, looked up)
chain: ATEVQPPVTNLSVSVENLCTIIWTWSPPEGASPNCTLRYFSHFDDQQDKKIAPETHRKEELPLDEKICLQVGSQCSANESEKPSPLVKKCISPPEGDPESAVTELKCIWHNLSYMKCSWLPGRNTSPDTHYTLYYWYSSLEKSRQCENIYREGQHIACSFKLTKVEPSFEHQNVQIMVKDNAGKIRPSCKIVSLTSYVKPDPPHIKHLLLKNGALLVQWKNPQNFRSRCLTYEVEVNNTQTDRHNILEVEEDKCQNSESDRNMEGTSCFQLPGVLADAVYTVRVRVKTNKLCFDDNKLWSDWSEAQSIGKEQNST
notes: extracellular domain; Bought (R & D Systems); Preformed disulphide-bonded dimer; also called mIL-13Rα1-Fc; chimeric mouse receptor; not shown: Fc portion of human IgG

Assays:
[1] = target: B3; assay: Biosensor, immobilized mouse IL-13, chimeric receptor in solution
Source text: (§1) A qualitative comparison of sensorgrams obtained in this study to data obtained previously with monomeric receptor protein, indicated a substantial improvement in binding kinetics. This improvement is attributed to a much slower off-rate for the dimeric form, compared with the monomeric form, of the receptor. To further quantify this interaction a complete dose-response analysis using both human and mouse chimeric receptor proteins and immobilized human and mouse IL-13 was undertaken.

[2] = target: B5; assay: as above
Source text: as §1

[3] = target: T1, mouse-human chimeric 1D9 Fab (human, UniProt P01857 1-103 = IgG part; P01834 1-107, limits assumed); assay: Biosensor competition assay: soluble chimeric 1D9 Fab on immobilized hIL-13Rα1 (ECD), competed by titrated soluble hIL-13Rα1 (ECD)
Procedure: (§2) FIGS. 11A and 11B are graphical representations of binding affinities of the chimeric and CDR-grafted Fab fragment. […] (B) Biosensor competition assay of soluble 1D9 chimeric or CDR-grafted Fab binding to immobilized hIL-13Rα1 (ECD) competed by soluble hIL-13Rα1 (ECD). Fold-difference in affinity is calculated from (IC₅₀/IC₅₀).

CDR-grafted 1D9 Fab [4] = target: B4; assay: Biosensor competition assay: soluble CDR-grafted 1D9 Fab on immobilized hIL-13Rα1 (ECD), competed by titrated soluble hIL-13Rα1 (ECD)
Procedure: as §2

[5] = target: T1, mouse-human chimeric 1D9 Fab; assay: Competition ELISA: phage displayed chimeric 1D9 Fab on plate bound hIL-13Rα1-Fc (ECD) (2.5 µg/ml), competed by titrated soluble hIL-13Rα1 (ECD)
CDR-grafted 1D9 Fab [6] = target: B4; assay: Competition ELISA: phage displayed CDR-grafted 1D9 Fab on plate bound hIL-13Rα1-Fc (ECD) (2.5 µg/ml), competed by titrated soluble hIL-13Rα1 (ECD)
CDR-grafted 1D9 Fab [7] = target: B4; assay: Biosensor competition assay: soluble Fabs on immobilized hIL-13Rα1 (ECD), competed by soluble hIL-13Rα1 (ECD); ratio of the IC50 of the CDR-graft to that of the chimera
Procedure: as §2

CDR-grafted 1D9 Fab [8] = target: B4; assay: Competition ELISA: phage displayed Fabs on plate bound hIL-13Rα1-Fc (ECD), competed by soluble hIL-13Rα1 (ECD); ratio of the IC50 of the CDR-graft to that of the chimera
[9] = target: T2, IL-13 (species not stated); assay: Biosensor, immobilized IL-13
T2 construct: the 100-fold comparison

soluble hIL-13Rα1 (ECD) = target: B2; assay: competition ELISA (phage displayed Fab) and Biacore competition (soluble Fab)
Procedure: as §2
The CDR-grafted Fab has similar affinity for IL-13Rα1 as the reference murine-human chimeric Fab.

[10] = target: B3; assay: ELISA: phage displayed Fab on plate bound hIL-13Rα1-Fc (ECD) (2.5 µg/ml), competed by soluble hIL-13Rα1 (ECD)
mouse IL-13 = target: B1; assay: Biosensor, immobilized IL-13
human IL-13 = human IL-13 (human, UniProt P35225 35-146, limits assumed); assay: Biosensor, immobilized IL-13
Chain of human IL-13 (P35225 35-146 limits assumed): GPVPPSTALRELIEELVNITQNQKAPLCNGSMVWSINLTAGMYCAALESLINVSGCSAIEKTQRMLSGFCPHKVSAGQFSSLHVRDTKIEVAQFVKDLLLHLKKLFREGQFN

T1 sequence (VH, as listed by the source limits assumed, chain 1 of 2): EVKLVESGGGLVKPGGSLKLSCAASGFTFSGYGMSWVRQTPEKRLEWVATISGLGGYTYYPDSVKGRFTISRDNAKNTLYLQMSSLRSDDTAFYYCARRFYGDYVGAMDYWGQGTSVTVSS
T1 sequence (VL, as listed by the source limits assumed, chain 2 of 2): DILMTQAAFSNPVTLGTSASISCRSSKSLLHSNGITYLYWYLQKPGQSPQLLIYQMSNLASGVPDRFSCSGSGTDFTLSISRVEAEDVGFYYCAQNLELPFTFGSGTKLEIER

Binder: B1
- Kd [1]: 15.1 nM
- Kd [2]: 0.536 nM

Binder: B2
- IC50 [3]: 6.66 nM
- IC50 (CDR-grafted 1D9 Fab [4]): 9.61 nM
- IC50 [5]: 0.045 µg/mL
- IC50 (CDR-grafted 1D9 Fab [6]): 0.127 µg/mL
- fold difference in affinity (CDR-graft against Chimera, IC50/IC50) (CDR-grafted 1D9 Fab [7]): ~1.5 fold
- fold difference in affinity (CDR-graft against Chimera, IC50/IC50) (CDR-grafted 1D9 Fab [8]): ~3 fold

Binder: B3
- fold increase in affinity compared with the monomeric form of the receptor [9]: 100 fold

Binder: B4
- binding result (soluble hIL-13Rα1 (ECD)): binds
- binding result [10]: binds

Binder: B5
- fold greater affinity compared with the chimeric human receptor (mouse IL-13): ~10 fold
- fold greater affinity compared with the chimeric human receptor (human IL-13): ~10 fold
